Entries after “also recorded” stand apart in the source; their conditions may differ. Read-outs that look alike come from different tables or passages of the source. Each block holds one molecule with its values, some of them ahead of it.
Columns and labels:
[1] = system: Q8BH64
[2] = Liposome co-sedimentation (membrane binding) assay; conditions: Folch / PS liposomes
Protocol: (§1) Amino acid numbering corresponds to mouse EHD2. b, EHD2 binds to adenine nucleotides, as determined by ITC. For clarity, ΔΔH=ΔHn−ΔH1 is plotted. […] Images were acquired close to the basal cell surface. f, Nucleotide hydrolysis was measured by HPLC in the absence (empty symbols) or presence of Folch liposomes (filled symbols). Data represent mean and standard deviation for two (intrinisic reactions) or three (stimulated reactions) independent experiments.
Nucleotide hydrolysis was measured as described in FIG. 1f. In vitro tubulation activity of PS liposomes was analysed as described in FIG. 1d. f, EGFP-tagged mutants were over-expressed in HeLa cells. […] For each construct, three independent experiments with ≈50 cells/experiments were analysed.
ITC measurements were performed at 10° C. in 20 mM HEPES (pH 7.5), 300 mM NaCl, 2 mM MgCl2. Liposome binding assays were performed as described previously (www.endocytosis.org). Multiple turnover ATPase assays were performed in 20 mM HEPES (pH 7.5), 135 mM NaCl, 15 mM KCl, 1 mM MgCl2 at 30° C. with 10 μM EHD2 (or mutants) as enzyme and 100 μM ATP as substrate, in the absence or presence of 1 mg/ml Folch liposomes (Sigma-Aldrich).
Mouse full-length EHD2 was expressed in bacteria and purified to homogeneity (FIG. 5). The purified protein was nucleotide-free as judged by HPLC analysis. […] It was previously reported that EHDs—despite having a predicted G-domain—bind to adenine nucleotides^15. […] We still refer to this domain as a G-domain because the sequence and fold (see below) are clearly similar to other G-domains. […] Using synthetic liposomes containing various different phosphatidyl-inositols (PI) (FIG. 1c) we observed best binding to liposomes containing PI(4,5)bisphosphate (PIP2).

[3] = biological target: T1, EHD2 (Mus musculus, UniProt Q8BH64); assay: Multiple turnover ATPase assay (nucleotide hydrolysis by HPLC) with or without Folch liposomes; format: biochemical; conditions: for kobs stimulated ATPase reaction: presence of 1 mg/ml Folch (or PS) liposomes; for membrane-stimulated ATPase activity (in words): presence of Folch liposomes
T1 construct: Mouse EHD2 full-length protein and all mutants were expressed as N-terminal His-fusions followed by a PreScission cleavage site; His (N, cleaved yes); made in house; host or cells: Escherichia coli BL21 DE3 Rosetta
T1 sequence (Q8BH64 1-543): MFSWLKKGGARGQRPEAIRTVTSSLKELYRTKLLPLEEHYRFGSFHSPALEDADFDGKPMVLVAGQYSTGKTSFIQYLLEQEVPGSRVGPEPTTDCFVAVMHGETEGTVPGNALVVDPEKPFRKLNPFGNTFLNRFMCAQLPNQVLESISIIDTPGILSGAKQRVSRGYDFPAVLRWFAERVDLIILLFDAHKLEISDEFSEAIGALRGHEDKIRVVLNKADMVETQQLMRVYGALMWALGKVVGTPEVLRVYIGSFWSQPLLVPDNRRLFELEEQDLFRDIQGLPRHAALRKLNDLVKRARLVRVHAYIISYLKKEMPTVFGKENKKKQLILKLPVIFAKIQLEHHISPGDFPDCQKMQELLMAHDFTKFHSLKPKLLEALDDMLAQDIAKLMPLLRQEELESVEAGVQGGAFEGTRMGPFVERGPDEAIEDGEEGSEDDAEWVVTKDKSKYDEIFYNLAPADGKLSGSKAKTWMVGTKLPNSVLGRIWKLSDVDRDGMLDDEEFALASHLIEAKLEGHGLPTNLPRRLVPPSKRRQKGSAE
In short: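 10 μM EHD2 with 100 μM ATP in 20 mM HEPES pH 7.5, 135 mM NaCl, 15 mM KCl, 1 mM MgCl2 at 30 °C, with or without 1 mg/ml Folch liposomes. Reactions started by protein addition; hydrolysis tracked by HPLC, initial rates from linear fit up to 40% hydrolysis.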

[4] = system: HeLa cells; assay: Over-expression of EGFP-tagged EHD2 and mutants in HeLa cells (confocal / live imaging); format: cell-based; conditions: for distribution of EGFP-tagged protein over-expressed in HeLa cells: 24 h after transfection, fixed; for dynamics of tubules and puncta by EPI-fluorescence live imaging: over-expressed 24 h, imaged approximately 30 min
[5] = Negative stain EM of liposome tubulation/oligomerisation; conditions: 2.5 μM protein, PS liposomes
Protocol: as §1
EHD2 was incubated with the indicated liposomes in the presence and absence of nucleotides and analysed by EM as described in Methods. a, EHD2 deformed PS liposomes into tubular networks, here in the presence of ATP-γ-S. b, Enlarged views of the indicated area in a. Note the presence of regularly spaced EHD2 rings (some are indicated with arrows). This even spacing may be due to the curvature stress generated by an EHD2 ring along the axis of the lipid tubule which might disfavour binding of the next ring in the direct vicinity (see below). c, Some of the lipid tubules (especially at higher protein concentration) were tightly packed with EHD2 oligomeric rings. d,e In the presence of ADP and in the absence of nucleotide (f,g), EHD2 also tubulated PS liposomes and formed ring-like structures around the tubules. e,g are enlarged views of the indicated areas in d and f, respectively.
Reactions were started by the addition of the protein to the final reaction mix and nucleotide hydrolysis was followed using standard HPLC measurement^27. Initial rates were determined by applying a linear fit to data points up to 40% nucleotide hydrolysis. For electron microscopic studies, 2.5 μM EHD2 in 20 mM HEPES (pH 7.5), 150 mM NaCl, 1 mM MgCl2 was incubated for 15 min at 25° C. in the presence of 1 mM nucleotide and 0.05 mg/ml (final concentration) of the indicated liposomes. Samples were spotted on carbon-coated copper grids (Canemco and Marivac) and negatively stained with 2% uranyl acetate.
Nucleotide-independence of liposome tubulation in vitro is also observed for dynamin^16. No noticeable tubule fission or alteration in tubule diameter was found for EHD2 in the presence of ATP. […] Folch liposomes were also tabulated by EHD2. However, with synthetic liposomes containing only 2.5% PIP2 and in the absence of PS, the amount of EHD binding was reduced, and in this less favourable binding condition we only observed tubulation in the presence of ATP-γ-S and ADP but not in the absence of nucleotides (FIG. 7).

[6] = biological target: T2, isolated EH-domain of EHD2 (mouse, UniProt Q8BH64 443-543, limits assumed); assay: ITC at 10 °C, 100 mM HEPES pH 7.5, 50 mM NaCl, 200 µM CaCl2; peptide against the EH-domain of EHD2
T2 construct: domain: EH-domain; ITC buffer contained 200 µM CaCl2
T2 sequence (looked up): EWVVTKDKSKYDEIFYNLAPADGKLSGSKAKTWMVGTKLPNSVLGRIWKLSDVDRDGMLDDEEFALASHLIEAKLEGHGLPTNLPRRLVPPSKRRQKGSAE

[7] = biological target: Q8BH64; remark: listed apart in the source
[8] = biological target: the molecule itself; assay: negative stain EM on PS liposomes
[9] = biological target: T2, isolated EH-domain of EHD2; assay: ITC at 10 °C, peptide against the EH-domain of EHD2

Molecule: EHD2 deletion mutant of the EH-domain (ΔEH)
- membrane-stimulated ATPase activity [1]: did not show any membrane-stimulated ATPase activity

Molecule: EHD2: mouse full-length EHD2 expressed in bacteria; EGFP-tagged in HeLa cells
- binding to liposomes (co-sedimentation) [2]: efficient binding
- kobs intrinsic/background ATPase activity ([3]; 10 μM protein, 100 μM ATP, 30° C., absence of liposomes): 0.7 h⁻¹
- kobs stimulated ATPase reaction ([3]; 10 μM protein, 100 μM ATP, 30° C.): 5.6 h⁻¹
- kobs stimulated ATPase reaction ([3]; 10 μM protein, 100 μM ATP, 30° C., listed as wt): 5.4 h⁻¹
- stimulation of intrinsic ATP reaction by liposomes ([3]; Folch or PS liposomes versus no liposomes): 8 fold
- stimulated nucleotide hydrolysis slower than dynamin ([3]; stimulated condition, versus dynamin GTP hydrolysis): 600 fold
- distribution of EGFP-tagged protein over-expressed in HeLa cells [4]: localised to puncta and tubular networks close to the cell surface; also recorded: marked punctate and tubular structures
- dynamics of tubules and puncta by EPI-fluorescence live imaging [4]: Some of the tubules and puncta are dynamic
- liposome tubulation / oligomerisation by EM [5]: deforms PS liposomes in a nucleotide-independent manner into 20 nm-diameter tubules

B1: EHD2 double mutant of the two side-site xPF motifs (F122A/F128A) (protein)
chain: MFSWLKKGGARGQRPEAIRTVTSSLKELYRTKLLPLEEHYRFGSFHSPALEDADFDGKPMVLVAGQYSTGKTSFIQYLLEQEVPGSRVGPEPTTDCFVAVMHGETEGTVPGNALVVDPEKPARKLNPAGNTFLNRFMCAQLPNQVLESISIIDTPGILSGAKQRVSRGYDFPAVLRWFAERVDLIILLFDAHKLEISDEFSEAIGALRGHEDKIRVVLNKADMVETQQLMRVYGALMWALGKVVGTPEVLRVYIGSFWSQPLLVPDNRRLFELEEQDLFRDIQGLPRHAALRKLNDLVKRARLVRVHAYIISYLKKEMPTVFGKENKKKQLILKLPVIFAKIQLEHHISPGDFPDCQKMQELLMAHDFTKFHSLKPKLLEALDDMLAQDIAKLMPLLRQEELESVEAGVQGGAFEGTRMGPFVERGPDEAIEDGEEGSEDDAEWVVTKDKSKYDEIFYNLAPADGKLSGSKAKTWMVGTKLPNSVLGRIWKLSDVDRDGMLDDEEFALASHLIEAKLEGHGLPTNLPRRLVPPSKRRQKGSAE
- membrane-stimulated ATPase activity [7]: did not show any membrane-stimulated ATPase activity
- membrane-stimulated ATPase activity (in words) [3]: did not show any membrane-stimulated ATPase activity
- membrane-stimulated ATPase activity (in words) ([3]; listed as mutation of the side site xPFs motif): completely prevented the membrane-stimulated ATPase reaction
- liposome tubulation / oligomerisation by EM [5]: did not find any regular oligomers on liposomes

B2: EHD2 T94A (enzyme, mouse, UniProt Q8BH64 1-543, looked up)
chain: MFSWLKKGGARGQRPEAIRTVTSSLKELYRTKLLPLEEHYRFGSFHSPALEDADFDGKPMVLVAGQYSTGKTSFIQYLLEQEVPGSRVGPEPTADCFVAVMHGETEGTVPGNALVVDPEKPFRKLNPFGNTFLNRFMCAQLPNQVLESISIIDTPGILSGAKQRVSRGYDFPAVLRWFAERVDLIILLFDAHKLEISDEFSEAIGALRGHEDKIRVVLNKADMVETQQLMRVYGALMWALGKVVGTPEVLRVYIGSFWSQPLLVPDNRRLFELEEQDLFRDIQGLPRHAALRKLNDLVKRARLVRVHAYIISYLKKEMPTVFGKENKKKQLILKLPVIFAKIQLEHHISPGDFPDCQKMQELLMAHDFTKFHSLKPKLLEALDDMLAQDIAKLMPLLRQEELESVEAGVQGGAFEGTRMGPFVERGPDEAIEDGEEGSEDDAEWVVTKDKSKYDEIFYNLAPADGKLSGSKAKTWMVGTKLPNSVLGRIWKLSDVDRDGMLDDEEFALASHLIEAKLEGHGLPTNLPRRLVPPSKRRQKGSAE
notes: mature; also called T94A mutant
- binding result [8]: binds
- membrane-stimulated ATPase activity (in words) [3]: did not show any membrane-stimulated ATPase activity
- distribution of EGFP-tagged protein over-expressed in HeLa cells [4]: extensive tubulation with no punctate stained; also recorded: labelled extensive tubular structures with essentially, no punctate staining
- dynamics of tubules and puncta by EPI-fluorescence live imaging [4]: only tubules, and these are mostly static
- liposome tubulation / oligomerisation by EM [5]: oligomerised around PS liposomes

Continued, values first:

- Kd [6]: 130 µM
Molecule: KLNPFGNT (also called side site NPF peptide) [peptide 124-KLNPFGNT from EHD2]

- binding result [9]: no binding
Molecule: PEKPFRKL (also called side site KPF peptide) [peptide 118-PEKPFRKL from EHD2]

- binding result [9]: no binding
Molecule: RMGPFVER (also called top site GPF peptide) [peptide 418-RMGPFVER from EHD2]
